In patent US20250383350, “ANALYTE DETECTION USING APTAMERS” (The Regents of the University of Michigan, published 2025):

Legend:
[1] = molecular target: T1, IL-8 (CXCL8), captured by monoclonal antibody (Homo sapiens, UniProt P10145 P10145:28-99); experiment: single-molecule TIRF; antibody-mediated capture; 25% horse serum, 21 C; kon 4.48e6, koff 1.17; settings: tags: Bio-Rad BR-1098; captured by biotinylated anti-IL-8 EPR19358-108; label: 5'-Cy5
Protocol: (§1) SiMREPS assays of recombinant antigens-All sample handling was performed in GeneMate low-adhesion 1.7-mL microcentrifuge tubes, and dilutions were performed in 25% horse serum, 0.75×PBS, pH 7.4, and 7.5 mg/mL BSA. The slide surface was washed with 100 μL of T50 buffer (10 mM Tris-HCl, 50 mM NaCl, 1 mm EDTA, pH 8.0) for 10 minutes followed by the addition of 40 μL 1 mg/mL streptavidin. After 10 minutes, excess streptavidin was removed, and the sample chamber washed three times with 100 μL of 1×PBS. Next, the coverslip was coated with the biotinylated capture antibody by adding 40 μL of a solution containing 10 nM of biotinylated capture antibody in 1×PBS buffer and incubating for 30 minutes. […]
(§2) To systematically assess the effect of aptamer size on the kinetics of binding to the small (8.4 kDa) protein IL-8, two different antigen capture strategies were used: direct capture, in which C-terminally biotin labelled IL-8 was immobilized directly on the surface by the biotin-streptavidin interaction; and antibody mediated capture, in which non-biotinylated IL-8 was captured on the surface by a surface-immobilized biotinylated monoclonal antibody (FIG. 7A). […] To gain more quantitative insight, association and dissociation rate constants were calculated from the dwell time distributions in the aptamer-unbound and -bound states, respectively, and are shown in Table 2.

[2] = molecular target: T2, IL-8 (CXCL8), C-terminally biotinylated, directly surface-captured (Homo sapiens, UniProt P10145 P10145:28-99); experiment: single-molecule TIRF; direct IL-8 capture; 25% horse serum, 21 C; kon 5.68e6, koff 0.50; settings: tags: C-terminal biotin; Chemotactics B-CXCL8-2 ug; immobilized on streptavidin; label: 5'-Cy5
Text: as §2

[3] = molecular target: T1, IL-8 (CXCL8), captured by monoclonal …; experiment: single-molecule TIRF; antibody-mediated capture; 25% horse serum, 21 C; kon 0.99e6, koff 2.50; settings: tags: Bio-Rad BR-1098; captured by biotinylated anti-IL-8 EPR19358-108; label: 3'-Cy5
Protocol: as §1, §2

[4] = molecular target: T2, IL-8 (CXCL8), C-terminally …; experiment: single-molecule TIRF; direct IL-8 capture; 25% horse serum, 21 C; kon 2.08e6, koff 0.55; settings: tags: C-terminal biotin; Chemotactics B-CXCL8-2 ug; immobilized on streptavidin; label: 3'-Cy5
Text: as §2

VEGF165 [5] = molecular target: T3, VEGF165 (Homo sapiens, UniProt P15692-4 P15692-4:27-191); experiment: single-molecule TIRF; settings: tags: Abcam ab9571; captured by biotinylated anti-VEGF165 IgG (Bio-Rad); chain copies: 2; label: 3'-Cy5
VEGF165 [6] = molecular target: T3, VEGF165; experiment: single-molecule TIRF; same buffer as t22 G->A; settings: tags: Abcam ab9571; captured by biotinylated anti-VEGF165 IgG (Bio-Rad); chain copies: 2; label: 3'-Cy5
[7] = molecular target: T2, IL-8 (CXCL8), C-terminally …; experiment: single-molecule TIRF; direct IL-8 capture; 25% horse serum, 21 C; kon 3.21e6, koff 0.54; settings: tags: C-terminal biotin; Chemotactics B-CXCL8-2 ug; immobilized on streptavidin; label: 3'-Cy5
Text: as §2

[8] = molecular target: T1, IL-8 (CXCL8), captured by monoclonal …; experiment: single-molecule TIRF; antibody-mediated capture; 25% horse serum, 21 C; kon 2.29e6, koff 2.32; settings: tags: Bio-Rad BR-1098; captured by biotinylated anti-IL-8 EPR19358-108; label: 3'-Cy5
Protocol: as §1, §2

T1 sequence (P10145 28-99, one chain of several): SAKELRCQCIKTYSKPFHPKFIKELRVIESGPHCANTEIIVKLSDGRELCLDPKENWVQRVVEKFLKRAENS
T2 sequence (P10145 28-99, one chain of several): as above
T3 sequence (P15692 other isoform, or with tags, fused parts or gaps): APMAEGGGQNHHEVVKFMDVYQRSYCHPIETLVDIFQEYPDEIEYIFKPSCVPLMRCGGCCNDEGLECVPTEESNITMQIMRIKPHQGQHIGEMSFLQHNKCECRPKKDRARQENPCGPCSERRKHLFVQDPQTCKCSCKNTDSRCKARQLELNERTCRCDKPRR

GGGUUAUCAUUCCAUUUAGUGUUAUGAUAA (ssRNA, 2'-F at all pyrimidines) [8A-30 (SEQ ID NO 3)]
Kd [1]: 261 nM | Kd [2]: 88 nM

B1: 8A-44 (SEQ ID NO 1) (ssRNA)
RNA: GGGGGCUUAUCAUUCCAUUUAGUGUUAUGAUAACCUCUCCCAUA
modifications: 2'-F at C and U (printed i2FC/i2FU up to position 36; text states all pyrimidines)
Kd [3]: 2520 nM | Kd [4]: 264 nM

GCGGUAGGAAGAAUUGGAAGCGC (ssRNA, 2'-F at all pyrimidines) [t22 (SEQ ID NO 4)]
kon (VEGF165 [5]): 220000 M⁻¹ s⁻¹ | koff (VEGF165 [6]): 0.02 s⁻¹

GGGGGCUUAUCAUUCCAUUUAGUGUUAUGAUAACC (ssRNA, 2'-F at all pyrimidines) [8A-35 (SEQ ID NO 2)]
Kd [7]: 168 nM | Kd [8]: 1010 nM
